The experiment addresses recombinant TdfH (Neisseria gonorrhoeae TonB-dependent transporter, NGO0952) (Neisseria gonorrhoeae). The experiment can be described thus: ITC; Nano ITC, 25°C, 1x PBS with 0.05% DDM; TdfH (300 μl, 20 μM) in the cell, CP sample (200 μM) in 20 injections of 2.5 μl; fitted with NanoAnalyze to a two-state (multisite) model, TKO to a single-site model. Background: ITC needs no label: the signal is the heat of the interaction.

On to “mouse calprotectin (heterodimer of mouse S100A8 and S100A9) (from UniProt P27005 1-89; P31725 1-113) (complex)”, for which the KD, higher affinity (two-state model) amounted to 0.72 µM and the KD, lower affinity (two-state model) was 51 µM.

Source of the values: article PMC7251212.
